From US20050112698A1 (Bayer, published 2005)

How the values were obtained:
[1] = target: T1, human Stem Cell Factor (human, UniProt P21583 26-189); experiment: cell-based or functional assay
[2] = target: T2, Cynomolgus Monkey SCF (cynomolgus monkey, UniProt A0A7N9CAX5 26-189); experiment: cell-based or functional assay
[3] = target: T1, human Stem Cell Factor; experiment: cell-based or functional assay; remark: listed apart in the source
[4] = target: T1, human Stem Cell Factor; experiment: BIAcore, Fab on immobilized SCF
[5] = target: T2, Cynomolgus Monkey SCF; experiment: cell-based or functional assay; remark: listed apart in the source
[6] = target: T2, Cynomolgus Monkey SCF; experiment: SPR BIAcore, 5000 RU immobilized cSCF, off-rate ranking
Description: (§1) TABLE 12 Sequences of the CDR3 Vk1 Region of Selected Antibody Clones with Comparison of koff and SCF Inhibitory Activity The off-rates were determined using a high density surface CM5 chip (5000 RU of immobilized cSCF) on BIAcore and are shown with comparison to the original A2-G8 clone. […] The IC₅₀ in the TF-1 proliferation assay was based on an average of two assays with the exception of the A2-G8-IgG (n = 5).
Analysis of Fab binding to cSCF was performed by surface plasmon resonance using a BIAcore 2000 (Biacore, Piscataway, N.J.), according to the manufacturer's instructions and a CM5 chip (Biacore) coated with cSCF. For amine coupling, a research grade CM5 chip was activated using the standard NHS/EDC procedure. Cynomologus monkey SCF was diluted to 20 μg/ml in 10 mM NaAcetate, pH 5.0, and a total of 5000 RU's were coupled to channel 2 of the sensor surface. The remaining active sites were quenched by the addition of 1M ethanolamine, pH 8.0. Channel 1 was subjected to the coupling procedure in the absence of protein and was used as a reference surface. Extracts were diluted 1/5 in HBS-EP running buffer and injected for 2 min using a flow rate of 20 μl/min. The surface was regenerated by two consecutive injections of 25 μl, 10 mM glycine, pH 2.5, using a flow rate of 100 μl/min. The koff was calculated from a single concentration of Fab using BIAevaluation software (Biacore).

[7] = target: T2, Cynomolgus Monkey SCF; experiment: competition ELISA: cSCF binding to coated human SCFR, Fab 3.1 µg/ml
Description: The extracts containing Fab were also tested for the ability to inhibit SCF binding to the SCF receptor. ELISA plates were coated overnight with 2 μg/ml human SCFR (R&D Systems, Minneapolis, Minn.) in PBS at 4° C. After washing with TBS-T, the plate was blocked with 5 mg/ml BSA in PBS. The extract was diluted 1/5 in PBS buffer containing 12.5 ng/ml cSCF and 1 mg/ml BSA. After a 1 hr incubation at room temperature, 100 μl was added to the blocked ELISA plate and incubated an additional hour. The plate was washed 5 times with TBS-T, and 100 μl of a 0.4 μg/ml solution of anti-SCF (R&D Systems) in 1 mg/ml BSA in PBS was added. After 1 hour the plate was washed and incubated with anti-Mouse-HRP (Sigma, St. Louis, Mo.). The plate was developed with BM Blue POD substrate (Roche Diagnostics, Chicago, Ill.) and read at 370 nm.
as §1

[8] = target: T1, human Stem Cell Factor; experiment: cell-based or functional assay; remark: listed apart in the source
[9] = target: T1, human Stem Cell Factor; experiment: SPR BIAcore 2000, Fab over 150 RU immobilized hSCF
Description: (§2) Affinity measurements were carried out on a BIAcore 2000 (Biacore) at 25° C. […] Purified Fab's were diluted in HBS-EP running buffer at concentrations ranging from 1.95 to 125 nM. A volume of 100 μl was injected using a flow rate of 50 μl/min in Kinject mode. After a 10 min dissociation, 50 μl of 10 mM Glycine, pH 2.5 and 25 μl of 10 mM Glycine, pH 2.0 was injected using a flow rate of 100 μl/min. All samples were run in duplicate. […] Cynomologus monkey SCF was diluted in HBS-EP running buffer at concentrations ranging from 15.6 to 500 nM and 150 μl injected at a flow rate of 50 μl/min. After a 15 min dissociation, 50 μl of 10 mM Glycine, pH 2.5, and 25 μl of 10 mM Glycine, pH 1.5 was injected using a flow rate of 100 μl/min. All samples were run in duplicate. The data was globally fit to the 1 to 1 binding model using BIAevaluation software. The raw experimental data were corrected for instrumental and bulk solvent artifacts by double referencing using both activated and blocked surfaces as controls.
(§3) To evaluate the binding properties of anti-SCF Fabs selected from affinity optimization of the CDR3 loop with SCF, the real time interaction was measured using surface plasmon resonance with the BIAcore 2000. […] The improvement in Kd's are primarily governed by a substantial reduction in the off-rate (koff). […] The affinity constants for Fab binding to human SCF were slightly lower than those Kd's for cynomologus monkey SCF. The panning design, with lower antigen concentrations and extensive washing steps, favors off-rate selection. The affinity of the A2-G8 clone in an IgG vector was measured using the IgG immobilized to the surface of the CM5 chip.

[10] = target: T2, Cynomolgus Monkey SCF; experiment: SPR BIAcore 2000, Fab over 185 RU immobilized cSCF
Description: as §2, §3

[11] = target: T1, human Stem Cell Factor; experiment: cell-based or functional assay; remark: listed apart in the source
[12] = target: T1, human Stem Cell Factor; experiment: BIAcore, Affinity Estimation, Fab

T1 sequence (P21583 other isoform, or with tags, fused parts or gaps limits assumed): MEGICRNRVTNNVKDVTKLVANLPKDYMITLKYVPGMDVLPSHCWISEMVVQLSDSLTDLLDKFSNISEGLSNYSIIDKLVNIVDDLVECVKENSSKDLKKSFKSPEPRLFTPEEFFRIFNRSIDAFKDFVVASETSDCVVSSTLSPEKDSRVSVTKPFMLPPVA

| percent inhibition of SCF-induced TF-1 proliferation at 200 ug/ml Fab [1] [%] | percent inhibition of SCF-induced TF-1 proliferation at 200 ug/ml Fab [2] [%] | Efficacy IC50 (TF-1 proliferation assay, Fab) [3] [µg/mL] | Kd [4] [nM] | IC50 TF-1 cynoSCF Assay [5] [µg/mL] | koff [6] [s⁻¹] | % Inhibition SCF Binding ELISA Assay [7] [%] | TF-1 proliferation IC50, fold lower than the A2-G8 Mab [1] [fold] | IC50 TF-1 huSCF Assay [8] [µg/mL] | Kd [9] [nM] | koff [9] [s⁻¹] | kon [9] [M⁻¹ s⁻¹] | Kd [10] [nM] | koff [10] [s⁻¹] | kon [10] [M⁻¹ s⁻¹] | TF-1 Fab assay IC50 [11] [µg/mL] | Kd [12] [nM] | Binder |
| --- | --- | --- | --- | --- | --- | --- | --- | --- | --- | --- | --- | --- | --- | --- | --- | --- | --- |
| > 100 | > 100 | 30 | 9.7 | – | – | – | – | – | – | – | – | – | – | – | – | – | Fab A8 (first screen, Vλ1) (Fab, V domains shown, It carries FLAG and Strep tags) VH: not shown VL: DIVLTQPPSVSGAPGQRVTISCSGSSSNIGSNYVSWYQQLPGTAPKLLIYDNNQRPSGVPDRFSGSKSGTSASLAITGLQSEDEADYYCQSRDHYVVRWVFGGGTKLTVL |
| – | – | – | – | 4.64 | 0.00075 | 70 | – | – | – | – | – | – | – | – | – | – | Fab A8 (light chain CDR3 variant of A2-G8) (Fab, V domains shown, It carries FLAG and Strep tags) VH: not shown VL: QMTQSPSSLSASVGDRVTITCRASQGIRGYLGWYQQKPGKAPKLLIYSASSLQSGVPSRFSGSGSGTDFTLTISSLQPEDFATYYCCSAGFMPYTFGQGTKVEIKR |
| – | – | – | – | 1.46 | 0.0003 | 70 | ≥ 6 | 0.19 | 1.4 | 0.00027 | 190000 | 5.4 | 0.00073 | 130000 | – | – | Fab D6L (Fab, V domains shown, Light chain CDR3 variant of Fab A2-G8; It carries FLAG and Strep tags) VH: not shown VL: QMTQSPSSLSASVGDRVTITCRASQGIRGYLGWYQQKPGKAPKLLIYSASSLQSGVPSRFSGSGSGTDFTLTISSLQPEDFATYYCGEWLSMPYTFGQGTKVEIKR |
| – | – | – | – | 2.07 | 0.00041 | 65 | ≥ 6 | 0.14 | 1.6 | 0.0005 | 320000 | 4.9 | 0.00104 | 210000 | – | – | Fab B1 (Fab, V domains shown, It carries FLAG and Strep tags) VH: not shown VL: QMTQSPSSLSASVGDRVTITCRASQGIRGYLGWYQQKPGKAPKLLIYSASSLQSGVPSRFSGSGSGTDFTLTISSLQPEDFATYYCAEYIRMPYTFGQGTKVEIKR |
| – | – | – | – | 1.65 | 0.00044 | 68 | ≥ 6 | 0.38 | 1.8 | 0.00046 | 250000 | 5.5 | 0.00087 | 160000 | – | – | Fab A12 (Fab, V domains shown, Light chain CDR3 variant of Fab A2-G8; It carries FLAG and Strep tags) VH: not shown VL: QMTQSPSSLSASVGDRVTITCRASQGIRGYLGWYQQKPGKAPKLLIYSASSLQSGVPSRFSGSGSGTDFTLTISSLQPEDFATYYCGEWAYMPYTFGQGTKVEIKR |
| – | – | – | – | 0.48 | 0.00027 | 75 | ≥ 6 | 0.09 | 0.8 | 0.00024 | 290000 | 3.6 | 0.00069 | 190000 | – | – | Fab D5 (light chain CDR3 variant of A2-G8) (Fab, V domains shown, It carries FLAG and Strep tags) VH: not shown VL: QMTQSPSSLSASVGDRVTITCRASQGIRGYLGWYQQKPGKAPKLLIYSASSLQSGVPSRFSGSGSGTDFTLTISSLQPEDFATYYCASQGWMPYTFGQGTKVEIKR |
| – | – | – | – | 5.45 | 0.00048 | 70 | – | 2.01 | 1.7 | 0.0005 | 300000 | 4.3 | 0.00079 | 190000 | – | – | Fab B9 (Fab, V domains shown, It carries FLAG and Strep tags; also called B9L) VH: not shown VL: QMTQSPSSLSASVGDRVTITCRASQGIRGYLGWYQQKPGKAPKLLIYSASSLQSGVPSRFSGSGSGTDFTLTISSLQPEDFATYYCAGTGFMPYTFGQGTKVEIKR |
| – | – | – | – | 0.78 | 0.00024 | 85 | ≥ 6 | 0.17 | 1.3 | 0.00022 | 170000 | 2.6 | 0.00028 | 110000 | – | – | Fab F5L (Fab, V domains shown, Light chain CDR3 variant of Fab A2-G8; It carries FLAG and Strep tags) VH: not shown VL: QMTQSPSSLSASVGDRVTITCRASQGIRGYLGWYQQKPGKAPKLLIYSASSLQSGVPSRFSGSGSGTDFTLTISSLQPEDFATYYCSAHGFMPYTFGQGTKVEIKR |
| – | – | – | – | – | – | – | – | – | – | – | – | – | – | – | 25 | 57 | Fab A2-A1 (Fab, V domains shown) VH: not shown VL: DIQMTQSPSSLSASVGDRVTITCRASQGISSYLAWYQQKPGKAPKLLIYAASSLQSGVPSRFSGSGSGTDFTLTISSLQPEDFATYYCQQYSGMPYTFGQGTKVEIK |
| – | – | – | – | – | – | – | – | – | – | – | – | – | – | – | 8 | 17 | Fab A2-E8 (Fab, V domains shown) VH: not shown VL: DIQMTQSPSSLSASVGDRVTITCRASQGIFKYLAWYQQKPGKAPKLLIYAASSLQSGVPSRFSGSGSGTDFTLTISSLQPEDFATYYCQQYSGMPYTFGQGTKVEIK |
| – | – | – | – | – | – | – | – | – | – | – | – | – | – | – | – | 18 | Fab A2-D12 (Fab, V domains shown) VH: not shown VL: DIQMTQSPSSLSASVGDRVTITCRASQGIWLYLSWYQQKPGKAPKLLIYAASSLQSGVPSRFSGSGSGTDFTLTISSLQPEDFATYYCQQYSGMPYTFGQGTKVEIK |
| – | – | – | – | – | – | – | – | – | – | – | – | – | – | – | 25 | 44 | Fab A2-H8 (Fab, V domains shown) VH: not shown VL: DIQMTQSPSSLSASVGDRVTITCRASQGIIGYLGWYQQKPGKAPKLLIYRASSLQSGVPSRFSGSGSGTDFTLTISSLQPEDFATYYCQQYSGMPYTFGQGTKVEIK |
